Laboratory results reported in patent US20250383350, “ANALYTE DETECTION USING APTAMERS” (The Regents of the University of Michigan, published 2025).

Experiments:
[1] = molecular target: T1, IL-8 (CXCL8), captured by monoclonal antibody (Homo sapiens, UniProt P10145 P10145:28-99); assay: single-molecule TIRF; antibody-mediated capture; 25% horse serum, 21 C; kon 4.48e6, koff 1.17; conditions: tags: Bio-Rad BR-1098; captured by biotinylated anti-IL-8 EPR19358-108; label: 5'-Cy5
Experimental: (§1) SiMREPS assays of recombinant antigens-All sample handling was performed in GeneMate low-adhesion 1.7-mL microcentrifuge tubes, and dilutions were performed in 25% horse serum, 0.75×PBS, pH 7.4, and 7.5 mg/mL BSA. The slide surface was washed with 100 μL of T50 buffer (10 mM Tris-HCl, 50 mM NaCl, 1 mm EDTA, pH 8.0) for 10 minutes followed by the addition of 40 μL 1 mg/mL streptavidin. After 10 minutes, excess streptavidin was removed, and the sample chamber washed three times with 100 μL of 1×PBS. Next, the coverslip was coated with the biotinylated capture antibody by adding 40 μL of a solution containing 10 nM of biotinylated capture antibody in 1×PBS buffer and incubating for 30 minutes. […]
(§2) To systematically assess the effect of aptamer size on the kinetics of binding to the small (8.4 kDa) protein IL-8, two different antigen capture strategies were used: direct capture, in which C-terminally biotin labelled IL-8 was immobilized directly on the surface by the biotin-streptavidin interaction; and antibody mediated capture, in which non-biotinylated IL-8 was captured on the surface by a surface-immobilized biotinylated monoclonal antibody (FIG. 7A). […] To gain more quantitative insight, association and dissociation rate constants were calculated from the dwell time distributions in the aptamer-unbound and -bound states, respectively, and are shown in Table 2.

[2] = molecular target: T2, IL-8 (CXCL8), C-terminally biotinylated, directly surface-captured (Homo sapiens, UniProt P10145 P10145:28-99); assay: single-molecule TIRF; direct IL-8 capture; 25% horse serum, 21 C; kon 5.68e6, koff 0.50; conditions: tags: C-terminal biotin; Chemotactics B-CXCL8-2 ug; immobilized on streptavidin; label: 5'-Cy5
T2 sequence (P10145 28-99, one chain of several): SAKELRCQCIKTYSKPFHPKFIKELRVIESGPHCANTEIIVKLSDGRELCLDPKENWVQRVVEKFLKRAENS
From the text: as §2

[3] = molecular target: T1, IL-8 (CXCL8), captured by monoclonal …; assay: single-molecule TIRF; antibody-mediated capture; 25% horse serum, 21 C; kon 2.29e6, koff 2.32; conditions: tags: Bio-Rad BR-1098; captured by biotinylated anti-IL-8 EPR19358-108; label: 3'-Cy5
Experimental: as §1, §2

[4] = molecular target: T2, IL-8 (CXCL8), C-terminally …; assay: single-molecule TIRF; direct IL-8 capture; 25% horse serum, 21 C; kon 3.21e6, koff 0.54; conditions: tags: C-terminal biotin; Chemotactics B-CXCL8-2 ug; immobilized on streptavidin; label: 3'-Cy5
From the text: as §2

[5] = molecular target: T1, IL-8 (CXCL8), captured by monoclonal …; assay: single-molecule TIRF; antibody-mediated capture; 25% horse serum, 21 C; kon 0.99e6, koff 2.50; conditions: tags: Bio-Rad BR-1098; captured by biotinylated anti-IL-8 EPR19358-108; label: 3'-Cy5
Experimental: as §1, §2

[6] = molecular target: T2, IL-8 (CXCL8), C-terminally …; assay: single-molecule TIRF; direct IL-8 capture; 25% horse serum, 21 C; kon 2.08e6, koff 0.55; conditions: tags: C-terminal biotin; Chemotactics B-CXCL8-2 ug; immobilized on streptavidin; label: 3'-Cy5
From the text: as §2

VEGF165 [7] = molecular target: T3, VEGF165 (Homo sapiens, UniProt P15692-4 P15692-4:27-191); assay: single-molecule TIRF; conditions: tags: Abcam ab9571; captured by biotinylated anti-VEGF165 IgG (Bio-Rad); chain copies: 2; label: 3'-Cy5
T3 sequence (P15692 other isoform, or with tags, fused parts or gaps): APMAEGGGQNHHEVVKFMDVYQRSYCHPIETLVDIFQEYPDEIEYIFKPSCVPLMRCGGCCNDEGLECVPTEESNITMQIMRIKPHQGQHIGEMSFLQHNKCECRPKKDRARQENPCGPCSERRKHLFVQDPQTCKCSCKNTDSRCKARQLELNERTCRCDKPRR

VEGF165 [8] = molecular target: T3, VEGF165; assay: single-molecule TIRF; same buffer as t22 G->A; conditions: tags: Abcam ab9571; captured by biotinylated anti-VEGF165 IgG (Bio-Rad); chain copies: 2; label: 3'-Cy5

T1 sequence (P10145 28-99, one chain of several): as the sequence (P10145 28-99, one chain of several) above

GGGUUAUCAUUCCAUUUAGUGUUAUGAUAA (ssRNA, 2'-F at all pyrimidines) [8A-30 (SEQ ID NO 3)]
Kd [1]: 261 nM | Kd [2]: 88 nM

GGGGGCUUAUCAUUCCAUUUAGUGUUAUGAUAACC (ssRNA, 2'-F at all pyrimidines) [8A-35 (SEQ ID NO 2)]
Kd [3]: 1010 nM | Kd [4]: 168 nM

B1: 8A-44 (SEQ ID NO 1) (ssRNA)
RNA: GGGGGCUUAUCAUUCCAUUUAGUGUUAUGAUAACCUCUCCCAUA
modifications: 2'-F at C and U (printed i2FC/i2FU up to position 36; text states all pyrimidines)
Kd [5]: 2520 nM | Kd [6]: 264 nM

GCGGUAGGAAGAAUUGGAAGCGC (ssRNA, 2'-F at all pyrimidines) [t22 (SEQ ID NO 4)]
kon (VEGF165 [7]): 220000 M⁻¹ s⁻¹ | koff (VEGF165 [8]): 0.02 s⁻¹
